Results: US20190085033A1 (published 2019)

Molecular target: BG505-gp120 10MUT-KO (HIV-1, strain BG505)
Test: SPR, monomeric gp120

B1: PGT121 (antibody, V domains shown)
VH: QMQLQESGPGLVKPSETLSLTCSVSGASISDSYWSWIRRSPGKGLEWIGYVHKSGDTNYSPSLKSRVNLSLDTSKNQVSLSLVAATAADSGKYYCARTLHGRRIYGIVAFNEWFTYFYMDVWGNGTQVTVSS
VL: SDISVAPGETARISCGEKSLGSRAVQWYQHRAGQAPSLIIYNNQDRPSGIPERFSGSPDSPFGTTATLTITSVEAGDEADYYCHIWDSRVPTKWVFGGGTTLTVL
notes: also called mature PGT121
Kd: 435 nM
